From patent US20140093477A1

Experiments:
[1] = molecular target: fibronectin on host cells (UniProt P02751); assay: cell-based or functional assay
[2] = molecular target: fibronectin from human plasma (full-length soluble fibronectin) (human) (UniProt P02751); assay: fluorescence saturation binding, fluorophore-labeled MBP-MAM on immobilized fibronectin (coated plates)

Work on “MBP-MAM7 (6xHis-MBP-Cys-MAM7, seven mce domains), Alexa Fluor 488-labeled (from UniProt P0AEX9 27-392)” yielded a delay of attachment of labeled MAM7 protein to trypsin-treated host cells [1] of 1 h.
With “MBP-MAM6 (6xHis-MBP-Cys-six mce domains), Alexa Fluor 488-labeled” the Kd [2] was 36 µM.
